Source: article PMC11176775
Values belong to the substance of their own block, whether it stands above or below them.

Experiments:
[1] = target: GST-tag APE1 full-length (apurinic/apyrimidinic-endonuclease 1) (UniProt P27695); experiment: SPR; GST-tag polβ or APE1 immobilised on CM5 chip (EDC/NHS), his-tag LIG1 or LIGIIIα passed as analyte; Biacore X-100, 25 °C; 10 mM Hepes pH 7.4, 150 mM NaCl, 3 mM EDTA, 0.005% surfactant P20; 1:1 (Langmuir) fit
[2] = target: GST-tag polβ full-length (DNA polymerase β, 1–335 amino acids) (UniProt P06746); experiment: SPR; Supplementary Figures 2 and 3; partner immobilised on the CM5 chip not given; Biacore X-100, 25 °C; 10 mM Hepes pH 7.4, 150 mM NaCl, 3 mM EDTA, 0.005% surfactant P20; 1:1 (Langmuir) fit
[3] = target: GST-tag polβ full-length (DNA polymerase β, 1–335 amino acids) (UniProt P06746); experiment: SPR; GST-tag polβ or APE1 immobilised on CM5 chip (EDC/NHS), his-tag LIG1 or LIGIIIα passed as analyte; Biacore X-100, 25 °C; 10 mM Hepes pH 7.4, 150 mM NaCl, 3 mM EDTA, 0.005% surfactant P20; 1:1 (Langmuir) fit
[4] = target: His-tag LIGIIIα full-length (DNA ligase IIIα, 1–922 amino acids); experiment: SPR; Supplementary Figures 2 and 3; partner immobilised on the CM5 chip not given; Biacore X-100, 25 °C; 10 mM Hepes pH 7.4, 150 mM NaCl, 3 mM EDTA, 0.005% surfactant P20; 1:1 (Langmuir) fit
[5] = target: Polβ C-terminal (92–335 amino acids), as used in SPR (UniProt P06746); experiment: as above
[6] = target: Apurinic/apyrimidinic-endonuclease 1 (UniProt P27695); experiment: SPR; Biacore X-100, 25 °C; GST-tag polβ or APE1 immobilised on CM5 chip (EDC/NHS, 10 mM sodium acetate pH 4.0), his-tag LIG1 or LIGIIIα proteins as analytes; 10 mM Hepes pH 7.4, 150 mM NaCl, 3 mM EDTA, 0.005% P20; 1:1 (Langmuir) model; polβ truncated mutants (Fig. S2) tested likewise, orientation not given
Apurinic/apyrimidinic-endonuclease 1, sequence (P27695 whole entry, the tested form may be a part): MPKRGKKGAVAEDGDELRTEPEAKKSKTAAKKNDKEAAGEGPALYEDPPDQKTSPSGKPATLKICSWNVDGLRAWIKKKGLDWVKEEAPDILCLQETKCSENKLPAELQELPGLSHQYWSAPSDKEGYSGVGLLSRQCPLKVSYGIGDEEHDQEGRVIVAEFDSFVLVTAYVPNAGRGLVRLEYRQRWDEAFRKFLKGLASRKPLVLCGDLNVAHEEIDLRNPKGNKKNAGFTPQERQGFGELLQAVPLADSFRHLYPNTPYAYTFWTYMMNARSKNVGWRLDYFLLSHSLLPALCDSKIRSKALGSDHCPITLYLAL

[7] = target: GST-tag DNA polymerase β, full-length (1–335 amino acids) (UniProt P06746); experiment: as above
[8] = target: Polβ C-terminal (92–335 amino acids) (UniProt P06746); experiment: as above
[9] = target: Polβ N-terminal (1–92 amino acids) (UniProt P06746); experiment: as above

GST-tag APE1 full-length (apurinic/apyrimidinic-endonuclease 1), sequence (P27695 whole entry, the tested form may be a part): as above
X-ray repair crosscomplementing protein 1 (XRCC1), his-tag, sequence (P18887 whole entry): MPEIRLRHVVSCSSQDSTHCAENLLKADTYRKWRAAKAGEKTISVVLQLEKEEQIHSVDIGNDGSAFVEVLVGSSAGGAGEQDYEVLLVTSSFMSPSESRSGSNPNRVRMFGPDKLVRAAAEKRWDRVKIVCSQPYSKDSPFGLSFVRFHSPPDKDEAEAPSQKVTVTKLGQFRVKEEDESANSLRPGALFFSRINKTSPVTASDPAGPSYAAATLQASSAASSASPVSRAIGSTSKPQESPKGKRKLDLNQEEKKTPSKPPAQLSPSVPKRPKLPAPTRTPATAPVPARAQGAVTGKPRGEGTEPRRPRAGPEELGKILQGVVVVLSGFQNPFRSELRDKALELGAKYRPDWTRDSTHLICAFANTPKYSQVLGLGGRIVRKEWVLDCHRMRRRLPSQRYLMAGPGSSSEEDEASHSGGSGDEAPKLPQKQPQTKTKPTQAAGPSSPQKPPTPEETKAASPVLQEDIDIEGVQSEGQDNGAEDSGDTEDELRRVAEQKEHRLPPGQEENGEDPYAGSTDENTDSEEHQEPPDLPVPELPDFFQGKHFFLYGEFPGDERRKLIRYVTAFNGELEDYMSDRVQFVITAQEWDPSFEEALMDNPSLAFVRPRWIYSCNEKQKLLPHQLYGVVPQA
poly (ADP-ribose) polymerase 1 (PARP1), his-tag, sequence (P09874 whole entry): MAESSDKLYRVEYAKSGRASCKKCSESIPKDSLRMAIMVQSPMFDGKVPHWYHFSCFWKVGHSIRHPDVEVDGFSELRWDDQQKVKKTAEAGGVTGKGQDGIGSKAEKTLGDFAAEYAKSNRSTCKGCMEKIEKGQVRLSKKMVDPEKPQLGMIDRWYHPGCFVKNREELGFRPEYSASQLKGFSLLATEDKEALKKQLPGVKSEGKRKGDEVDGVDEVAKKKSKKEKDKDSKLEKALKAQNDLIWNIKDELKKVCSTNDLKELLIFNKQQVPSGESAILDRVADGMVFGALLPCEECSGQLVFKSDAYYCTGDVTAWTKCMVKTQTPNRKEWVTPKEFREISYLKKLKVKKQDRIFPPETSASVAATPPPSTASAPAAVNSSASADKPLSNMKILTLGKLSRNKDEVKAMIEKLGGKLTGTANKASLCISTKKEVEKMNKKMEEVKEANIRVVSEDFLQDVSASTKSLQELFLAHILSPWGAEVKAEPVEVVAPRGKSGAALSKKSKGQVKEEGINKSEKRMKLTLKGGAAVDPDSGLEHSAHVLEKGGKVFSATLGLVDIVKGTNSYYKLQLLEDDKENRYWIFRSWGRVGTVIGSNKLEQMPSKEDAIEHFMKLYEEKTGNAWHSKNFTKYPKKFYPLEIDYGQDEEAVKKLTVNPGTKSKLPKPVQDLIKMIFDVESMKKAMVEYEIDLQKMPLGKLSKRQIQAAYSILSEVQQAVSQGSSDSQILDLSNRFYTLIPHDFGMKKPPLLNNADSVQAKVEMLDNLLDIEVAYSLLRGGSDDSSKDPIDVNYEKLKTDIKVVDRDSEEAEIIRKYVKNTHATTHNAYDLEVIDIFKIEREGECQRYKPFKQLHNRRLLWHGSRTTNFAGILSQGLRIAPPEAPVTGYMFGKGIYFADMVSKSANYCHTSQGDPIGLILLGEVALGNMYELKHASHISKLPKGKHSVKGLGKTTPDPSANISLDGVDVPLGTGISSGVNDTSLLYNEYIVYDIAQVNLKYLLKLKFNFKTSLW

- Kd [1]: 1050 nM
Substance: LIGIIIα△BRCT (1–755 amino acids), LIGIIIα lacking the BRCT domain (domain or fragment)

- Kd [2]: 10 nM
Substance: X-ray repair crosscomplementing protein 1 (XRCC1), his-tag (from UniProt P18887 1-633) (natural protein; other documents disagree on this pair)

- Kd [1]: 4.9 nM
- Kd [3]: 27 nM
Substance: LIGIIIα△ZnF (170–922 amino acids), LIGIIIα lacking the zinc-finger domain (domain or fragment)

- Kd [4]: 20 nM
Substance: poly (ADP-ribose) polymerase 1 (PARP1), his-tag (from UniProt P09874 1-1014) (enzyme)

- Kd [5]: 740 nM
Substance: His-tag LIG1 full-length (DNA ligase 1, 1–919 amino acids) (from UniProt P18858 1-919) (enzyme)

- fold difference in KD against LIGIIIα▵ZnF [6]: 1000 fold
- Kd [7]: 520 nM
Substance: LIGIIIα▵BRCT (1–755 amino acids) (domain or fragment)

- Kd [5]: 500 nM
Substance: His-tag LIGIIIα full-length (DNA ligase IIIα, 1–922 amino acids) (enzyme)

- Kd [7]: 30 nM
Substance: LIGIIIα▵ZnF (170–922 amino acids) (domain or fragment)

- Kd [6]: 3.3 nM
- Kd [7]: 7 nM
- fold reduction of binding against the full-length proteins [8]: 500 fold
- Kd [9]: 32 nM
Substance: DNA ligase IIIα full-length (1–922 amino acids) (enzyme)
